Measured values taken from the RNAGym collection of RNA variant scans (doi:10.1093/nar/gkz1192).

B1: CPEB3 Ribozyme (parent)
chain: UAACAGGGGGCCACAGCAGAAGCGUUCACGUCGCAGCCCCUGUCAGAUUCUGGUGAAUCUGCGAAUUCUGCUGUAUAUCUC

Variants of: B1
Assay: self-cleavage, relative activity (ratio to wild type); higher = more cleavage; in vitro, sequencing
In short: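 For each CPEB3 ribozyme variant, relative activity is its cleaved/total read fraction divided by the unmutated ribozyme's. Barcoded error-prone PCR libraries were transcribed by T7 RNA polymerase (5 hours, 37°C) and held in DNase I for 15 min before an EDTA stop, with cleavage occurring throughout. Template-switching reverse transcription and Illumina sequencing were used to read the RNAs. A 5-read minimum applied, and results are the mean of three batches.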

Variant	self-cleavage
UAACAGGGGGCCACAGCAGAAGCGUUCACGUCGCAGCCCCUGUCAGAUGCUGGUGAAUCUGCGAAUUCUGCUGUAUAUCUU [U49G C81U]	0.77
UAACAGGGGGCCACAGCAGAAGCGUUCACGUCGCAGCCCCUGUCAGAUUAUGGUGAAUCUGCGAAUUCUGCUGUACAUCUC [C50A U76C]	1.02
UAACAGGGGGCCACAGCAGAAGCGUUCACGUCGCAGCCCCUGUCAGAUUAUGGUGAAUCUGCGAAUUCUGCUGUAAAUCUC [C50A U76A]	0.65
UAACAGGGGGCCACAGCAGAAGCGUUCACGUCGCAGCCCCUGUCAGAUUGUGGUGAAUCUGCGAAUUCCGCUGUAUAUCUC [C50G U69C]	0.14
UAACAGGGGGCCACAGCAGAAGCGUUCACGUCGCAGCCCCUGUCAGAUUGUGGUGAAUCUGCGAAUUCAGCUGUAUAUCUC [C50G U69A]	0.17
UAACAGGGGGCCACAGCAGAAGCGUUCACGUCGCAGCCCCUGUCAGAUGCUGGUGAAUCUGCGAAUUCUGCUGUAUAUCUC [U49G]	0.52
UAACAGGGGGCCACAGCAGAAGCGUUCACGUCGCAGCCCCUGUCAGAUGCUGGUGAACCUGCGAAUUCUGCUGUAUAUCUC [U49G U58C]	0.2
UAACAGGGGGCCACAGCAGAAGCGUUCACGUCGCAGCCCCUGUCAGAUUAUGGUGAAUCUGCGAAUUCUGGUGUAUAUCUC [C50A C71G]	0.18
UAACAGGGGGCCACAGCAGAAGCGUUCACGUCGCAGCCCCUGUCAGAUUAUGGUGAAUCUGCGAAUUCUGUUGUAUAUCUC [C50A C71U]	0.55
UAACAGGGGGCCACAGCAGAAGCGUUCACGUCGCAGCCCCUGUCAGAUUAUGGUGAAUCUGCGAAUUCUGCUGUAUAUCCC [C50A U80C]	1.05
UAACAGGGGGCCACAGCAGAAGCGUUCACGUCGCAGCCCCUGUCAGAUUAUGGUGAAUCUGCGAAUUCUGCUGUAUAUCAC [C50A U80A]	0.83
UAACAGGGGGCCACAGCAGAAGCGUUCACGUCGCAGCCCCUGUCAGAUUAUGGUGAAUCUGCGAAUACUGCUGUAUAUCUC [C50A U67A]	0.38
UAACAGGGGGCCACAGCAGAAGCGUUCACGUCGCAGCCCCUGUCAGAUUAUGGUGAAUCUGCGAAUCCUGCUGUAUAUCUC [C50A U67C]	0.2
UAACAGGGGGCCACAGCAGAAGCGUUCACGUCGCAGCCCCUGUCAGAUGCUGGUGAAUCUGCGGAUUCUGCUGUAUAUCUC [U49G A64G]	0.4
UAACAGGGGGCCACAGCAGAAGCGUUCACGUCGCAGCCCCUGUCAGAUGCUGGUGAAUCUGCGAAUUCUGCUGUGUAUCUC [U49G A75G]	0.42
UAACAGGGGGCCACAGCAGAAGCGUUCACGUCGCAGCCCCUGUCAGAUUGUGGUGAGUCUGCGAAUUCUGCUGUAUAUCUC [C50G A57G]	0.51
UAACAGGGGGCCACAGCAGAAGCGUUCACGUCGCAGCCCCUGUCAGAUGCUGGUGAAUCUGCGAAUUCUGCUGUAUGUCUC [U49G A77G]	0.39
UAACAGGGGGCCACAGCAGAAGCGUUCACGUCGCAGCCCCUGUCAGAUUAUGGUGAAUCUGCGAGUUCUGCUGUAUAUCUC [C50A A65G]	0.31
UAACAGGGGGCCACAGCAGAAGCGUUCACGUCGCAGCCCCUGUCAGAUUAUGGUGAAUCUGCGAAUUCUGCUGUAUAGCUC [C50A U78G]	1.06
UAACAGGGGGCCACAGCAGAAGCGUUCACGUCGCAGCCCCUGUCAGAUUAUGGUGAAUCUGCGAAUUCUGCUGUAUACCUC [C50A U78C]	0.71
UAACAGGGGGCCACAGCAGAAGCGUUCACGUCGCAGCCCCUGUCAGAUUAUGGCGAAUCUGCGAAUUCUGCUGUAUAUCUC [C50A U54C]	0.83
UAACAGGGGGCCACAGCAGAAGCGUUCACGUCGCAGCCCCUGUCAGAUUAUGGAGAAUCUGCGAAUUCUGCUGUAUAUCUC [C50A U54A]	0.88
UAACAGGGGGCCACAGCAGAAGCGUUCACGUCGCAGCCCCUGUCAGAUUAUGGUGAAUCUGCGAAUUCUGCCGUAUAUCUC [C50A U72C]	0.86

Variant	self-cleavage
UAACAGGGGGCCACAGCAGAAGCGUUCACGUCGCAGCCCCUGUCAGAUGCUGGUGGAUCUGCGAAUUCUGCUGUAUAUCUC [U49G A56G]	0.35
UAACAGGGGGCCACAGCAGAAGCGUUCACGUCGCAGCCCCUGUCAGAUGCUGGUGUAUCUGCGAAUUCUGCUGUAUAUCUC [U49G A56U]	0.65
UAACAGGGGGCCACAGCAGAAGCGUUCACGUCGCAGCCCCUGUCAGAUGCUGGUGAAUCCGCGAAUUCUGCUGUAUAUCUC [U49G U60C]	0.23
UAACAGGGGGCCACAGCAGAAGCGUUCACGUCGCAGCCCCUGUCAGAUUGUGGUGAAUCUACGAAUUCUGCUGUAUAUCUC [C50G G61A]	0.27
UAACAGGGGGCCACAGCAGAAGCGUUCACGUCGCAGCCCCUGUCAGAUUAUGGUGAAUCUGCGAAUUCUGCUGUAUUUCUC [C50A A77U]	0.67
UAACAGGGGGCCACAGCAGAAGCGUUCACGUCGCAGCCCCUGUCAGAUGCUGGUGAAUCUGCGAAUUCUGCUGUAUAUUUC [U49G C79U]	0.77
UAACAGGGGGCCACAGCAGAAGCGUUCACGUCGCAGCCCCUGUCAGAUUAUGGUGAAUCUGCGAACUCUGCUGUAUAUCUC [C50A U66C]	0.3
UAACAGGGGGCCACAGCAGAAGCGUUCACGUCGCAGCCCCUGUCAGAUCCUGGUGAAUCUGCGAAUUCUGCUGUAUAUCGC [U49C U80G]	0.49
UAACAGGGGGCCACAGCAGAAGCGUUCACGUCGCAGCCCCUGUCAGAUCCUGGUGAAUCUGCGAAUUCUGCUGUAUAUCCC [U49C U80C]	0.61
UAACAGGGGGCCACAGCAGAAGCGUUCACGUCGCAGCCCCUGUCAGAUGCUGGUGAAUCUGCGAAUUCCGCUGUAUAUCUC [U49G U69C]	0.21
UAACAGGGGGCCACAGCAGAAGCGUUCACGUCGCAGCCCCUGUCAGAUGCUGGUGAAUCUGCGAAUUCAGCUGUAUAUCUC [U49G U69A]	0.36
UAACAGGGGGCCACAGCAGAAGCGUUCACGUCGCAGCCCCUGUCAGAUUUUGGUGGAUCUGCGAAUUCUGCUGUAUAUCUC [C50U A56G]	0.85
UAACAGGGGGCCACAGCAGAAGCGUUCACGUCGCAGCCCCUGUCAGAUUUUGGUGUAUCUGCGAAUUCUGCUGUAUAUCUC [C50U A56U]	0.82
UAACAGGGGGCCACAGCAGAAGCGUUCACGUCGCAGCCCCUGUCAGAUUAUGGUGGAUCUGCGAAUUCUGCUGUAUAUCUC [C50A A56G]	0.43
UAACAGGGGGCCACAGCAGAAGCGUUCACGUCGCAGCCCCUGUCAGAUUGUGGUGUAUCUGCGAAUUCUGCUGUAUAUCUC [C50G A56U]	0.45
UAACAGGGGGCCACAGCAGAAGCGUUCACGUCGCAGCCCCUGUCAGAUGCUGGUGAAUCUGCGAAUCCUGCUGUAUAUCUC [U49G U67C]	0.31
UAACAGGGGGCCACAGCAGAAGCGUUCACGUCGCAGCCCCUGUCAGAUUGUGGUGAAUCUGCGAAUUCUGCUGUCUAUCUC [C50G A75C]	0.54
UAACAGGGGGCCACAGCAGAAGCGUUCACGUCGCAGCCCCUGUCAGAUGCCGGUGAAUCUGCGAAUUCUGCUGUAUAUCUC [U49G U51C]	0.63
UAACAGGGGGCCACAGCAGAAGCGUUCACGUCGCAGCCCCUGUCAGAUUAUGGUGAAUCUGCGAAUUCUGCUGCAUAUCUC [C50A U74C]	0.87
UAACAGGGGGCCACAGCAGAAGCGUUCACGUCGCAGCCCCUGUCAGAUUAUGGUGAAUCUGCGAAUUCUGCUAUAUAUCUC [C50A G73A]	1.24
UAACAGGGGGCCACAGCAGAAGCGUUCACGUCGCAGCCCCUGUCAGAUUAUGGUGAUUCUGCGAAUUCUGCUGUAUAUCUC [C50A A57U]	0.22
UAACAGGGGGCCACAGCAGAAGCGUUCACGUCGCAGCCCCUGUCAGAUGCUGGUGAAUCUGCGAAUUCUGCUGUAUACCUC [U49G U78C]	0.43
UAACAGGGGGCCACAGCAGAAGCGUUCACGUCGCAGCCCCUGUCAGAUUGUGGUGAAUCUGCGAAUUCUGCCGUAUAUCUC [C50G U72C]	0.75

Variant	self-cleavage
UAACAGGGGGCCACAGCAGAAGCGUUCACGUCGCAGCCCCUGUCAGAUUGUGGUGAAUCUGCGAAUUCUGCAGUAUAUCUC [C50G U72A]	0.58
UAACAGGGGGCCACAGCAGAAGCGUUCACGUCGCAGCCCCUGUCAGAUUAAGGUGAAUCUGCGAAUUCUGCUGUAUAUCUC [C50A U51A]	0.84
UAACAGGGGGCCACAGCAGAAGCGUUCACGUCGCAGCCCCUGUCAGAUUACGGUGAAUCUGCGAAUUCUGCUGUAUAUCUC [C50A U51C]	0.93
UAACAGGGGGCCACAGCAGAAGCGUUCACGUCGCAGCCCCUGUCAGAUUUUGGUGAAUCUGCGAAUUCUGCUGUAUAUCUC [C50U]	1.01
UAACAGGGGGCCACAGCAGAAGCGUUCACGUCGCAGCCCCUGUCAGAUUAUGGUGAAUCUGCGAAUUCUGCUGUAUAUCUC [C50A]	0.88
UAACAGGGGGCCACAGCAGAAGCGUUCACGUCGCAGCCCCUGUCAGAUUGUGGUGAAUCUGCGAAUUCUGCUGUAUAUCUC [C50G]	0.8
UAACAGGGGGCCACAGCAGAAGCGUUCACGUCGCAGCCCCUGUCAGAUGCUGGUGAAUCUGCGAAUUCUGCCGUAUAUCUC [U49G U72C]	0.72
UAACAGGGGGCCACAGCAGAAGCGUUCACGUCGCAGCCCCUGUCAGAUGCUGGUUAAUCUGCGAAUUCUGCUGUAUAUCUC [U49G G55U]	0.88
UAACAGGGGGCCACAGCAGAAGCGUUCACGUCGCAGCCCCUGUCAGAUUAUGGUGAAUCUGCGAAUUCAGCUGUAUAUCUC [C50A U69A]	0.42
UAACAGGGGGCCACAGCAGAAGCGUUCACGUCGCAGCCCCUGUCAGAUUAUGGUGAAUCUGCGAAUUCCGCUGUAUAUCUC [C50A U69C]	0.49
UAACAGGGGGCCACAGCAGAAGCGUUCACGUCGCAGCCCCUGUCAGAUGCUGGUGAAUCUGCGAAUUCUGCUGUAUAUCCC [U49G U80C]	0.48
UAACAGGGGGCCACAGCAGAAGCGUUCACGUCGCAGCCCCUGUCAGAUGCUGGUGAAUCUGCAAAUUCUGCUGUAUAUCUC [U49G G63A]	0.28
UAACAGGGGGCCACAGCAGAAGCGUUCACGUCGCAGCCCCUGUCAGAUUAUGGUGAAUCAGCGAAUUCUGCUGUAUAUCUC [C50A U60A]	0.27
UAACAGGGGGCCACAGCAGAAGCGUUCACGUCGCAGCCCCUGUCAGAUUAUGGUGAAUCCGCGAAUUCUGCUGUAUAUCUC [C50A U60C]	0.13
UAACAGGGGGCCACAGCAGAAGCGUUCACGUCGCAGCCCCUGUCAGAUUUUGGUGAAUCUGCGGAUUCUGCUGUAUAUCUC [C50U A64G]	0.99
UAACAGGGGGCCACAGCAGAAGCGUUCACGUCGCAGCCCCUGUCAGAUUUUGGUGAAUCUGCGUAUUCUGCUGUAUAUCUC [C50U A64U]	0.52
UAACAGGGGGCCACAGCAGAAGCGUUCACGUCGCAGCCCCUGUCAGAUUGCGGUGAAUCUGCGAAUUCUGCUGUAUAUCUC [C50G U51C]	0.68
UAACAGGGGGCCACAGCAGAAGCGUUCACGUCGCAGCCCCUGUCAGAUUGUGGUGAAUCUGCGAAUUCUGCUGUAUACCUC [C50G U78C]	0.71
UAACAGGGGGCCACAGCAGAAGCGUUCACGUCGCAGCCCCUGUCAGAUUUUGGUGAAUCUGCGAGUUCUGCUGUAUAUCUC [C50U A65G]	0.4
UAACAGGGGGCCACAGCAGAAGCGUUCACGUCGCAGCCCCUGUCAGAUUAUGGUGAAUCUGCGCAUUCUGCUGUAUAUCUC [C50A A64C]	0.43
UAACAGGGGGCCACAGCAGAAGCGUUCACGUCGCAGCCCCUGUCAGAUUAUGGUGAAUCUGCGGAUUCUGCUGUAUAUCUC [C50A A64G]	0.73
UAACAGGGGGCCACAGCAGAAGCGUUCACGUCGCAGCCCCUGUCAGAUGCUGGCGAAUCUGCGAAUUCUGCUGUAUAUCUC [U49G U54C]	0.44
